{
  "source": "patent US20250043287",
  "about": "“SYNTHETIC MEMORY WITH INTERCEPTING RECOMBINASE FUNCTION” (Georgia Tech Research Corporation, published 2025)",
  "binders": {"B1": {"name": "A118 attP Ottg P+1 (dsDNA)", "DNA 1": "TTAGTTCCTCGTTTTCTCTCGTTAATTTTGAGCGCTCAAAAAAACTAAA", "DNA 2": "TTTAGTTTTTTTGAGCGCTCAAAATTAACGAGAGAAAACGAGGAACTAA"}, "B2": {"name": "A118 attP Oagg P+1 (dsDNA)", "DNA 1": "B1 DNA 1 with T28A, T29G, A38C, A39T", "DNA 2": "B1 DNA 2 with T11A, T12G, A21C, A22T"}, "B3": {"name": "A118 attP Ogtg (Osym) P+1 (dsDNA)", "DNA 1": "B1 DNA 1 with T28G, A39C", "DNA 2": "B1 DNA 2 with T11G, A22C"}},
  "key": {"[1]": {"target": "I+HQN (UniProt P03023 SEQ:1-360, Y17H,R22N)", "test": "cell_activity; day 1 dynamic range, IPTG; 57.65 day 3", "settings": "chain copies: 4"}, "[2]": {"target": "T1, E+HQN (UniProt O87590 SEQ:1-337, Y17H,R22N)", "T1 sequence": "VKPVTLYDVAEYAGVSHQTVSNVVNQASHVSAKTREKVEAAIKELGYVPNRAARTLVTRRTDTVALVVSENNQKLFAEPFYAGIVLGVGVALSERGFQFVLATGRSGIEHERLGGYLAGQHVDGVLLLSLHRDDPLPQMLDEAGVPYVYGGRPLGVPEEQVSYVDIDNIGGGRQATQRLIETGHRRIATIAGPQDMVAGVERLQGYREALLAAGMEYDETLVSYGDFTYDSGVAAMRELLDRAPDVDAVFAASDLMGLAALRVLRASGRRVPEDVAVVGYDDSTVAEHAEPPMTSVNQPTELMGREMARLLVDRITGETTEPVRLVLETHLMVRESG", "test": "cell_activity; day 1 dynamic range of interception, cellobiose induced; 114.83 day 3", "settings": "chain copies: 2"}, "[3]": {"target": "I+KSL (UniProt P03023 SEQ:1-360, Y17K,Q18S,R22L)", "test": "cell_activity; day 1 dynamic range; 7.42 day 3", "settings": "chain copies: 4"}, "[4]": {"target": "T2, E+KSL (UniProt O87590 SEQ:1-337, Y17K,Q18S,R22L)", "T2 sequence": "T1 sequence with H17K, Q18S, N22L", "test": "cell_activity; day 1 dynamic range; 71.51 day 3", "settings": "chain copies: 2"}, "[5]": {"target": "T3, I+YQR (LacI) (UniProt P03023 SEQ:1-360)", "T3 chain": "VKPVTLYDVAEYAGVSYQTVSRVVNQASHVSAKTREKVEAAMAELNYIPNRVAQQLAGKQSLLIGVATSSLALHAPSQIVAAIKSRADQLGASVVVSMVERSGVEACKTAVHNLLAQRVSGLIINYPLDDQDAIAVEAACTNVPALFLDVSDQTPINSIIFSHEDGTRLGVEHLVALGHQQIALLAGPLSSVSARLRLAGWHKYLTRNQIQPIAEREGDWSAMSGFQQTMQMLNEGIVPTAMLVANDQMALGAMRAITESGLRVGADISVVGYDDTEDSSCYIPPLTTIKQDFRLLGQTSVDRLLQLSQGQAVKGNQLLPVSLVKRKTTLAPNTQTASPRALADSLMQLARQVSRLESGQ", "test": "cell_activity; day 1 dynamic range; 29.77 day 3", "settings": "chain copies: 4"}, "[6]": {"target": "T4, E+YQR (CelR core, LacI-type DBD) (UniProt O87590 SEQ:1-337)", "T4 chain": "T1 sequence with H17Y, N22R", "test": "cell_activity; day 1 dynamic range; 141.52 day 3", "settings": "chain copies: 2"}},
  "note": "Numbering of substitutions follows the chain as printed.",
  "data": [
    {"binder": "B1", "values": [
      {"measurement": "binding signal", "setting": "[1]", "value": 15.4, "unit": "fold"},
      {"measurement": "binding signal", "setting": "[2]", "value": 20.6, "unit": "fold"}
    ]},
    {"binder": "B2", "values": [
      {"measurement": "binding signal", "setting": "[3]", "value": 5.44, "unit": "fold"},
      {"measurement": "binding signal", "setting": "[4]", "value": 14.7, "unit": "fold"}
    ]},
    {"binder": "B3", "values": [
      {"measurement": "dynamic range", "setting": "[5]", "value": 9.26, "unit": "fold"},
      {"measurement": "binding signal", "setting": "[6]", "value": 20.9, "unit": "fold"}
    ]}
  ]
}
